# Assay results as given in IntAct's records for PubMed 11297558.
# B1: Adhesion G protein-coupled receptor E2 (Homo sapiens), Q9UHX3 (parent)
# chain: MGGRVFLVFLAFCVWLTLPGAETQDSRGCARWCPQDSSCVNATACRCNPGFSSFSEIITTPMETCDDINECATLSKVSCGKFSDCWNTEGSYDCVCSPGYEPVSGAKTFKNESENTCQDVDECQQNPRLCKSYGTCVNTLGSYTCQCLPGFKLKPEDPKLCTDVNECTSGQNPCHSSTHCLNNVGSYQCRCRPGWQPIPGSPNGPNNTVCEDVDECSSGQHQCDSSTVCFNTVGSYSCRCRPGWKPRHGIPNNQKDTVCEDMTFSTWTPPPGVHSQTLSRFFDKVQDLGRDYKPGLANNTIQSILQALDELLEAPGDLETLPRLQQHCVASHLLDGLEDVLRGLSKNLSNGLLNFSYPAGTELSLEVQKQVDRSVTLRQNQAVMQLDWNQAQKSGDPGPSVVGLVSIPGMGKLLAEAPLVLEPEKQMLLHETHQGLLQDGSPILLSDVISAFLSNNDTQNLSSPVTFTFSHRSVIPRQKVLCVFWEHGQNGCGHWATTGCSTIGTRDTSTICRCTHLSSFAVLMAHYDVQEEDPVLTVITYMGLSVSLLCLLLAALTFLLCKAIQNTSTSLHLQLSLCLFLAHLLFLVAIDQTGHKVLCSIIAGTLHYLYLATLTWMLLEALYLFLTARNLTVVNYSSINRFMKKLMFPVGYGVPAVTVAISAASRPHLYGTPSRCWLQPEKGFIWGFLGPVCAIFSVNLVLFLVTLWILKNRLSSLNSEVSTLRNTRMLAFKATAQLFILGCTWCLGILQVGPAARVMAYLFTIINSLQGVFIFLVYCLLSQQVREQYGKWSKGIRKLKTESEMHTLSSSAKADTSKPSTVN
# B2: Adhesion G protein-coupled receptor E5 (Homo sapiens), P48960 (parent)
# chain: MGGRVFLAFCVWLTLPGAETQDSRGCARWCPQNSSCVNATACRCNPGFSSFSEIITTPTETCDDINECATPSKVSCGKFSDCWNTEGSYDCVCSPGYEPVSGAKTFKNESENTCQDVDECQQNPRLCKSYGTCVNTLGSYTCQCLPGFKFIPEDPKVCTDVNECTSGQNPCHSSTHCLNNVGSYQCRCRPGWQPIPGSPNGPNNTVCEDVDECSSGQHQCDSSTVCFNTVGSYSCRCRPGWKPRHGIPNNQKDTVCEDMTFSTWTPPPGVHSQTLSRFFDKVQDLGRDSKTSSAEVTIQNVIKLVDELMEAPGDVEALAPPVRHLIATQLLSNLEDIMRILAKSLPKGPFTYISPSNTELTLMIQERGDKNVTMGQSSARMKLNWAVAAGAEDPGPAVAGILSIQNMTTLLANASLNLHSKKQAELEEIYESSIRGVQLRRLSAVNSIFLSHNNTKELNSPILFAFSHLESSDGEAGRDPPAKDVMPGPRQELLCAFWKSDSDRGGHWATEGCQVLGSKNGSTTCQCSHLSSFAILMAHYDVEDWKLTLITRVGLALSLFCLLLCILTFLLVRPIQGSRTTIHLHLCICLFVGSTIFLAGIENEGGQVGLRCRLVAGLLHYCFLAAFCWMSLEGLELYFLVVRVFQGQGLSTRWLCLIGYGVPLLIVGVSAAIYSKGYGRPRYCWLDFEQGFLWSFLGPVTFIILCNAVIFVTTVWKLTQKFSEINPDMKKLKKARALTITAIAQLFLLGCTWVFGLFIFDDRSLVLTYVFTILNCLQGAFLYLLHCLLNKKVREEYRKWACLVAGGSKYSEFTSTTSGTGHNQTRALRASESGI
# Variants of: B1
# Conditions: with daf_human CD55, P08174
# Sequence of daf_human CD55, P08174 (P08174 whole entry): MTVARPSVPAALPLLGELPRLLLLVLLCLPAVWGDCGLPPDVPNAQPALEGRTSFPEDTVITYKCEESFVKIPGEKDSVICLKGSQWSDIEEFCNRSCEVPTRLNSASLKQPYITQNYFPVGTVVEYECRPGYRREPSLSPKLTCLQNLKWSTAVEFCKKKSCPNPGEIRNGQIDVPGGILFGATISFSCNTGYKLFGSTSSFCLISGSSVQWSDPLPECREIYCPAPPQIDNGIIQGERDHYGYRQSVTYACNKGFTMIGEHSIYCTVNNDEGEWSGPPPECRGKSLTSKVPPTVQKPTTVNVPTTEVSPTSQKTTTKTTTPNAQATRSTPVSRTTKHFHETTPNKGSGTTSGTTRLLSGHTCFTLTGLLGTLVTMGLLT
row,effect of a mutation on the interaction,Variant
1,causing an interaction,D36N
2,causing an interaction,M62T
3,causing an interaction,L74P

# Variants of: B2
# Conditions: with daf_human CD55, P08174
row,effect of a mutation on the interaction,Variant
1,decreasing interaction strength,N33D
2,decreasing interaction strength,P71L
3,decreasing interaction strength,T59M
